# Results from patent US20030219857.
# T1: β-casein (UniProt P02666)
# T1 sequence: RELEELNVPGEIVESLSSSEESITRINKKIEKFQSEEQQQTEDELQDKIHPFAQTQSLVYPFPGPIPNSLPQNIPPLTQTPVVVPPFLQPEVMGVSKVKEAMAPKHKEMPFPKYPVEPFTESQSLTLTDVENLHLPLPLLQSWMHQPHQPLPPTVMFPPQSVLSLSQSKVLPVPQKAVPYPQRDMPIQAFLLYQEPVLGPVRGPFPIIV
# B1: recombinant 6X-His-TGase fusion protein of Streptomyces mobaraensis ATCC 29032 (enzyme, UniProt P81453 77-407, looked up)
# Protein-glutamine gamma-glutamyltransferase: DSDDRVTPPAEPLDRMPDPYRPSYGRAETVVNNYIRKWQQVYSHRDGRKQQMTEEQREWLSYGCVGVTWVNSGQYPTNRLAFASFDEDRFKNELKNGRPRSGETRAEFEGRVAKESFDEEKGFQRAREVASVMNRALENAHDESAYLDNLKKELANGNDALRNEDARSPFYSALRNTPSFKERNGGNHDPSRMKAVIYSKHFWSGQDRSSSADKRKYGDPDAFRPAPGTGLVDMSRDRNIPRSPTSPGEGFVNFDYGWFGAQTEADADKTVWTHGNHYHAPNGSLGAMHVYESKFRNWSEGYSDFDRGAYVITFIPKSWNTAPDKVKQGWP
# modifications: N-terminal 6xHis tag
# How the values were obtained:
# [1] = molecular target: bovine serum albumin (BSA), native (UniProt P02769)
# glucose oxidase = glucose oxidase (UniProt P13006)
# [2] = molecular target: modified bovine serum albumin (denatured and partially refolded) (UniProt P02769)
# [3] = tested on: modified histone H3 protein (denatured and partially refolded)
# [4] = molecular target: modified ovalbumin (denatured and partially refolded) (UniProt P01012)
# [5] = tested on: myelin basic protein (MBP)
# ovalbumin, native = ovalbumin, native (UniProt P01012)
# [6] = tested on: recombinant serum albumin
# [7] = tested on: synthetic Bovine Serum Albumin peptide 5 (BSA5)
# β-casein = molecular target: T1, β-casein
# Sequence of modified bovine serum albumin (denatured and partially refolded) (P02769 25-607): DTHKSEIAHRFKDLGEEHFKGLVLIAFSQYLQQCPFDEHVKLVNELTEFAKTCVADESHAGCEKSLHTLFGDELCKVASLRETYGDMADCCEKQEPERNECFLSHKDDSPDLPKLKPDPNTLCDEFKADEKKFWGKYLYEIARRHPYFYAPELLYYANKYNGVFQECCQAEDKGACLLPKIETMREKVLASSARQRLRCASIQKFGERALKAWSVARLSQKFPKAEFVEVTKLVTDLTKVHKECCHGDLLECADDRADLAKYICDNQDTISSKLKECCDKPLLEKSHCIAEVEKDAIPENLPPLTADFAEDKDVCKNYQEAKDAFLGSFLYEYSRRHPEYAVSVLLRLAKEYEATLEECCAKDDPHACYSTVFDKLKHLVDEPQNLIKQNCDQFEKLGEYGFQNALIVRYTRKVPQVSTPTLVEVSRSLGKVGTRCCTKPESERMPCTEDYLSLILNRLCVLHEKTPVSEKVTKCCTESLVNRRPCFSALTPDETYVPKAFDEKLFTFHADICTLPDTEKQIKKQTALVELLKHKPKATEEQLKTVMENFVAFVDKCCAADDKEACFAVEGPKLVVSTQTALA
# Sequence of bovine serum albumin (BSA), native (P02769 25-607): as above
# Sequence of recombinant serum albumin (P02768 25-609): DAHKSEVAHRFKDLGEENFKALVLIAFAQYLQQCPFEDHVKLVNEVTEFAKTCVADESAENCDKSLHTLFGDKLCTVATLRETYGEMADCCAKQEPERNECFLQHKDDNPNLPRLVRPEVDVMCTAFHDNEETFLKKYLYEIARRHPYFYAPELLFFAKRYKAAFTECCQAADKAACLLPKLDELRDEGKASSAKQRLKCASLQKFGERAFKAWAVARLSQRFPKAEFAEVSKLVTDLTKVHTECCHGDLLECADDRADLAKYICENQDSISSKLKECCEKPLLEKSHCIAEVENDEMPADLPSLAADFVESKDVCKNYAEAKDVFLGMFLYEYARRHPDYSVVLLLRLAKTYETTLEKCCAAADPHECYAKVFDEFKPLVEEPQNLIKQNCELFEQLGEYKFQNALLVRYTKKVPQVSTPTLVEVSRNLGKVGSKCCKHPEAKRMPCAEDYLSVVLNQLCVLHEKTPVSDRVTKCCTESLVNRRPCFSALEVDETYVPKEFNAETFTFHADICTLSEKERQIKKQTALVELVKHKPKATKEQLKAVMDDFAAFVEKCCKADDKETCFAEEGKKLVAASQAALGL
# Sequence of modified ovalbumin (denatured and partially refolded) (P01012 2-386): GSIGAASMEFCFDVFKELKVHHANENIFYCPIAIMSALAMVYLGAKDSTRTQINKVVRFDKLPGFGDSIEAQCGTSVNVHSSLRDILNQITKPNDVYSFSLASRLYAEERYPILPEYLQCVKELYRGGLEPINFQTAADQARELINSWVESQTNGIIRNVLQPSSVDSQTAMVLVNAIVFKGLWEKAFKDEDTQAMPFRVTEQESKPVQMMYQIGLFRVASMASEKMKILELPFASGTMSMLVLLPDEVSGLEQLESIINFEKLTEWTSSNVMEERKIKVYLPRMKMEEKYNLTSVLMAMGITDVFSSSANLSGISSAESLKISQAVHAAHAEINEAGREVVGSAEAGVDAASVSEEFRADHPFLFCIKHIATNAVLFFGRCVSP
# Sequence of ovalbumin, native (P01012 2-386): as above
# Sequence of myelin basic protein (MBP) (P02687 whole entry): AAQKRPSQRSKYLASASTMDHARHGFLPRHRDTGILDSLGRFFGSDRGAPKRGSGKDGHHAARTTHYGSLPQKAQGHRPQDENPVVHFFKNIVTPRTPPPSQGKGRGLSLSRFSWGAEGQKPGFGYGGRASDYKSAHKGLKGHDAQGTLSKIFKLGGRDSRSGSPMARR
# Sequence of glucose oxidase (P13006 23-605): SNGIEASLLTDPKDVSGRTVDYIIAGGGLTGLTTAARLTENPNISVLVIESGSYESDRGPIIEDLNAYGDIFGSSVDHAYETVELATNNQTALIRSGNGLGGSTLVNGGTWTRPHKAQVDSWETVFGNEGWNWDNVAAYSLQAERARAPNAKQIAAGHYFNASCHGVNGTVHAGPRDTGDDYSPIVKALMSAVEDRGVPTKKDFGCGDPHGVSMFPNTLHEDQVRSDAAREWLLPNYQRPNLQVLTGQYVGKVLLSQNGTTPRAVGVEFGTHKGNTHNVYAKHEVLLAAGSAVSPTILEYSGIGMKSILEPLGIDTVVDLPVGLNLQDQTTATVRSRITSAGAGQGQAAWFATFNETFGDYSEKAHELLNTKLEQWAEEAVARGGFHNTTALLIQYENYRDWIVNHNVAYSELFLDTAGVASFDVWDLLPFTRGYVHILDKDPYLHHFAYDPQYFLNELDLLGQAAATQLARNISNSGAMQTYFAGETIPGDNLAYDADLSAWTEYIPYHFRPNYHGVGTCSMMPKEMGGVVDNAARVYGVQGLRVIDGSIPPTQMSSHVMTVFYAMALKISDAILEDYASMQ
protein,measurement,setting,value
B1,cross-linking of native non-substrate proteins,[1],there was no cross-linking even in the presence of a large amount of the purified recombinant transglutaminase fusion proteins in the activation solution
same,cross-linking of native non-substrate proteins,glucose oxidase,there was no cross-linking even in the presence of a large amount of the purified recombinant transglutaminase fusion proteins in the activation solution
same,cross-linking of native non-substrate proteins,"histone protein, native",there was no cross-linking even in the presence of a large amount of the purified recombinant transglutaminase fusion proteins in the activation solution
same,cross-linking seen on SDS-PAGE,"histone protein, native",complete and partial cross-linking was both observed for native histine H3 protein under the condition tested
same,cross-linking seen on SDS-PAGE,[2],"only the reactions containing the modified protein species of BSA, histine H3 protein, glucose oxidase, and ovalbumin were cross-linked by the purified recombinant SM TGase"
same,cross-linking seen on SDS-PAGE,[3],"only the reactions containing the modified protein species of BSA, histine H3 protein, glucose oxidase, and ovalbumin were cross-linked by the purified recombinant SM TGase"
same,cross-linking seen on SDS-PAGE,[4],"only the reactions containing the modified protein species of BSA, histine H3 protein, glucose oxidase, and ovalbumin were cross-linked by the purified recombinant SM TGase"
same,cross-linking of native non-substrate proteins,[5],there was no cross-linking even in the presence of a large amount of the purified recombinant transglutaminase fusion proteins in the activation solution
same,cross-linking of native non-substrate proteins,"ovalbumin, native",there was no cross-linking even in the presence of a large amount of the purified recombinant transglutaminase fusion proteins in the activation solution
same,cross-linking seen on SDS-PAGE,[6],the cross-linking reaction containing recombinant serum albumin revealed a mixture of very high molecular weight polymers of different length
same,"cross-linking seen on SDS-PAGE, rising amounts of SM TGase",[7],"increased amount of recombinant SM TGase corresponding to an increase in cross-linked (CL) BSA5 peptide, which run as a large molecular weight polymer on the top of the separating gel"
same,"cross-linking seen on SDS-PAGE, 1, 2 and 3 hours",β-amyloid peptide (1-42),The β-amyloid (1-42) peptide can be cross-linked by the recombinant transglutaminase as shown as a smear of a mixture of cross-linked peptides on the top of the separating gel and the disappearance of the peptide bands at the bottom of the SDS-PAGE
same,"cross-linking of a mixture of β-casein and glucose oxidase, SDS-PAGE",β-casein,"both protein species can be cross-linked by the purified recombinant SM TGase, as indicated by the disappearance of the two monomer bands"
same,"cross-linking of β-casein seen on SDS-PAGE, 0 mM DTT",β-casein,"in the absence of DTT (lane 1 and 2), the recombinant SM TGase had no cross-linking activity on β-casein"
same,"cross-linking of β-casein seen on SDS-PAGE, about 2 mM DTT",β-casein,the recombinant SM TGase was activated and β-casein run as a mixture of cross-linked polymer and monomer
same,"cross-linking of β-casein seen on SDS-PAGE, about 10 mM DTT",β-casein,the catalytic cross-linking activity of SM TGase resulted in cross-linking of all detectable β-casein substrates in the reaction
same,cross-linking seen on SDS-PAGE,β-casein,the cross-linked (CL) β-casein migrated as a smear on the SDS-PAGE gel indicating a mixture of high molecular weight polymers of different length
